Broadly, the Km is the substrate concentration at which the rate is half of its maximum. One may read the Vmax as the top rate of the reaction or transport when substrate is in excess.

Common to all, as to test: purified protein
Conditions in all cases: pH 9.0, 30 °C, free enzyme, ammonium needed as activator

Substrate in series [1]: CCO
Substrate in series [2]: CCCCCO
It is filed as biochemical, Methylorubrum extorquens.

Substrate in series [3]: CCCCO
It is filed as biochemical, Methylorubrum extorquens.

Substrate in series [4]: CO
It is filed as biochemical, Methylorubrum extorquens.

B1: MDH-His6-tag (recombinant PQQ-dependent methanol dehydrogenase, PQQ-MDH) (Methylorubrum extorquens AM1) (protein)
chain: NDKLVELSKSDDNWVMPGKNYDSNNFSDLKQINKGNVKQLRPAWTFSTGLLNGHEGAPLVVDGKMYIHTSFPNNTFALGLDDPGTILWQDKPKQNPAARAVACCDLVNRGLAYWPGDGKTPALILKTQLDGNVAALNAETGETVWKVENSDIKVGSTLTIAPYVVKDKVIIGSSGAELGVRGYLTAYDVKTGEQVWRAYATGPDKDLLLASDFNIKNPHYGQKGLGTGTWEGDAWKIGGGTNWGWYAYDPGTNLIYFGTGNPAPWNETMRPGDNKWTMTIFGRDADTGEAKFGYQKTPHDEWDYAGVNVMMLSEQKDKDGKARKLLTHPDRNGIVYTLDRTDGALVSANKLDDTVNVFKSVDLKTGQPVRDPEYGTRMDHLAKDICPSAMGYHNQGHDSYDPKRELFFMGINHICMDWEPFMLPYRAGQFFVGATLNMYPGPKGDRQNYEGLGQIKAYNAITGDYKWEKMERFAVWGGTMATAGDLVFYGTLDGYLKARDSDTGDLLWKFKIPSGAIGYPMTYTHKGTQYVAIYYGVGGWPGVGLVFDLADPTAGLGAVGAFKKLANYTQMGGGVVVFSLDGKGPYDDPNVGEWKSAAK
notes: full-length mxaF ORF with leader peptide and C-terminal His6 tag, expressed from pCM160 in M. extorquens AM1; small subunit co-purified from host; Ni-NTA; PQQ and Ca2+; with Methanol dehydrogenase [cytochrome c] subunit 2
Turning to B1, the Km is 610 ± 60 µM in “purified protein [1]”, 1400 ± 100 µM in the series “purified protein [2]”, 1900 ± 200 µM in “purified protein [3]” and 360 ± 70 µM in “purified protein [4]”. The Vmax was found to be 2.9 µmol/min/mg in “purified protein [1]”, 2.8 µmol/min/mg in the series “purified protein [2]”, 2.7 µmol/min/mg in the series “purified protein [3]” and 4.2 µmol/min/mg in the series “purified protein [4]”.

The record behind these values is paper PMC9499683, “Isolation and Characterization of Homologically Expressed Methanol Dehydrogenase from Methylorubrum extorquens AM1 for the Development of Bioelectrocatalytical Systems” (International Journal of Molecular Sciences, 2022).
